Our source for the binding result and IC50 values is patent US20240400720A1 (NOVIMMUNE S A, published 2024).

Test [1] deals with T1, human CD19 (human, UniProt P15391 20-291, limits assumed).
T1 construct: also called hCD19
T1 sequence (looked up): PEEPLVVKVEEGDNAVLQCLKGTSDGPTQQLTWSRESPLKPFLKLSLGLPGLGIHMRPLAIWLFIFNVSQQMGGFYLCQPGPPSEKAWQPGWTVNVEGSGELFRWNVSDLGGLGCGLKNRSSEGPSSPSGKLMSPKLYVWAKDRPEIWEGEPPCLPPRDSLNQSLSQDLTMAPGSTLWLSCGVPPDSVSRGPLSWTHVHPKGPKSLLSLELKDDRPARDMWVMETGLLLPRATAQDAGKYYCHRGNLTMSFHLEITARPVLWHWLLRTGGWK
The experiment in a line: affinity maturation of B7.

Test [2] deals with T2, human CD19 on Raji cells (human, UniProt P15391 20-556).
T2 construct: whole, on cells; also called native form of hCD19
T2 sequence (looked up): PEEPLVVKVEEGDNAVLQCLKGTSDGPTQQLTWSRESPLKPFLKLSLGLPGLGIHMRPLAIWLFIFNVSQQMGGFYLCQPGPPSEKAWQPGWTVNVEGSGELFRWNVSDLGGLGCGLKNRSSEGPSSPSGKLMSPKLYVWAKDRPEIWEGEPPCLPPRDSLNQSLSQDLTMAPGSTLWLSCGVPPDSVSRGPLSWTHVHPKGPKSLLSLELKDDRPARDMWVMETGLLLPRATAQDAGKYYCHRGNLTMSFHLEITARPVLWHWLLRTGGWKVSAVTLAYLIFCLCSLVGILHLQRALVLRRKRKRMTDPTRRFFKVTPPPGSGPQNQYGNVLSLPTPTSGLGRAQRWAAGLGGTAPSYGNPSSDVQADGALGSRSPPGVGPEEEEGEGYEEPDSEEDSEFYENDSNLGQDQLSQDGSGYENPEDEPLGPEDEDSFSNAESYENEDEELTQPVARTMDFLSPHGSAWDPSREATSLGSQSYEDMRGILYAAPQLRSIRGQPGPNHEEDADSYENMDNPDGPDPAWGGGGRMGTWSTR
The experiment in a line: FACS on Raji cells (CD19-positive), dose-response.

In test [3] the target is T1, human CD19. The test can be described thus: parental antibody, weaker than D11.
Test [4] has as its target T3, human CD47 on the cell surface (human, UniProt Q08722 19-323).
T3 construct: whole, on cells; also called huCD47; native CD47
The test can be described thus: CD47-SIRPα inhibition assay on Raji cells (competition with soluble SIRPα).

B1: D11 antibody (antibody, human IgG1, lambda, V domains shown)
VH: not shown
VL: NFMLTQPHSVSESPGKTVTISCTRSSGSIDDKFVQWYQQRPGSSPTTVIYYDNIRPSGVPDRFSGSIDSSSNSASLTISGLKTEDEADYYCQSYDASLYGWVFGGGTKLTVLG
notes: anti-CD19, IgG, lambda; also called L7B7_D11
In the case of B1, the binding result in test [1] and in test [2] was “binds” each time.

B2: B7 antibody (antibody, human IgG1, lambda, V domains shown)
VH: not shown
VL: NFMLTQPHSVSESPGKTVTISCTRSSGSIADKYVQWYQQRPGSSPTTVIYEDNQRPSGVPDRFSGSIDSSSNSASLTISGLKTEDEADYYCQSYDSSLYGWVFGGGTKLTVLG
notes: anti-CD19, IgG, lambda (IGLV6-57); parental clone; also called 1B7
As to B2, the binding result in test [2] and in test [3] was “binds” in each case.

B3: CD47xCD19 bispecific antibody with CD47 arm Ke8G11 (bispecific antibody)
heavy: not shown
light 1: DIQMTQSPSSLSASVGDRVTITCRASQSIGRYLNWYQQKPGKAPKLLIYAASSLQSGVPSRFSGSGSGTDFTLTISSLQPEDFATYYCQQMHPRGPKTFGQGTKVEIKRTVAAPSVFIFPPSDEQLKSGTASVVCLLNNFYPREAKVQWKVDNALQSGNSQESVTEQDSKDSTYSLSSTLTLSKADYEKHKVYACEVTHQGLSSPVTKSFNRGEC
light 2: NFMLTQPHSVSESPGKTVTISCTRSSGSIEDKYVQWYQQRPGSSPTIVIYYDNERPSGVPDRFSGSIDSSSNSASLTISGLKTEDEADYYCQTYDQSLYGWVFGGGTKLTVLGQPKAAPSVTLFPPSSEELQANKATLVCLISDFYPGAVTVAWKADSSPVKAGVETTTPSKQSNNKYAASSYLSLTPEQWKSHRSYSCQVTHEGSTVEKTVAPTECS
notes: also called Ke8G11 CD47Xcd19 BsAb; κλ body
As for B3, the half-inhibitory concentration (IC50) – broadly, the concentration needed to halve the response being measured – in test [4] came to 0.066 nM.
